Consider one substance from paper PMC8724117.

In this assay the target is dual anticoagulant and antiplatelet (APAC) agent (human) (UniProt P02768). In words: atomic force microscopy (tapping mode AFM); APAC alone (1:1000 and 1:20,000 dilution of stock) in PBS with 20 mM MgCl2, drop-casted on mica, imaged in air; volume distribution of 340 molecules evaluated with Gwyddion.

For orientation: stoichiometry N means a count of units in the complex or per binding partner. The substance “dual anticoagulant and antiplatelet (APAC) agent (from UniProt P02768 25-609)” displayed a stoichiometry N of 3.
